Experiment [1] concerns the target β-amyloid1-42, P05067. The experiment can be described thus: cell-based or functional assay.
Experiment [2] addresses T1, 125I-α-bungarotoxin, P60615.
T1 chain: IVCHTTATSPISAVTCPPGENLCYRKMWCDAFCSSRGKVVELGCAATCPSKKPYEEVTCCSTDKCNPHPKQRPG

15 molecules from patent US20030092613A1, “Alpha7 nicotinic receptor peptides as ligands for beta amyloid peptides” (priority 2000, published 2003) can be followed below.

In experiment [1], Ac-AERFYECCKEP-NH2 (cysteine pairing not given here) yielded an ACh rel % Inh @ 100 µM of 15% and an Inh ACh rel IC50 greater than 10 µM. For the same molecule, in experiment [2], the concentration for half-maximal inhibition (IC50) (commonly the concentration that inhibits the measured activity by half) amounted to 15 µM.
In experiment [1], Ac-SERFAECCKEP-NH2 (cysteine pairing not given here) returned an ACh rel % Inh @ 100 µM of 18% and an Inh ACh rel IC50 greater than 10 µM. This molecule returned an IC50 in experiment [2] greater than 100 µM.
The like results for Ac-SERFYECCKEA-NH2 (cysteine pairing not given here) were, in that order, 59%, less than 10 µM and greater than 100 µM.
For the molecule Ac-SEAFYECCKEP-NH2 (cysteine pairing not given here), in experiment [1], the ACh rel % Inh @ 100 µM came out at 70% and the Inh ACh rel IC50 was 0.277 µM. The same molecule registered an IC50 in experiment [2] of 9.6 µM.
In experiment [1], Ac-GIPGKRSERFYECCK-NH2 (cysteine pairing not given here) displayed an ACh rel % Inh @ 100 µM of 73% and an Inh ACh rel IC50 of 1.21 µM.
On to Ac-SERFYACCKEP-NH2 (cysteine pairing not given here), for which, in experiment [1], the ACh rel % Inh @ 100 µM was 14% and the Inh ACh rel IC50 was greater than 10 µM. This molecule yielded an IC50 in experiment [2] of 9.5 µM.
The like results for Ac-IPGKRSERFYECCKEPYPDV-NH2 (cysteine pairing not given here) were, in that order, 73%, 0.626 µM and 0.2 µM.
In the case of Ac-IPGKRSERFYECCKEPYP-NH2 (cysteine pairing not given here), in experiment [1], the ACh rel % Inh @ 100 µM turned out to be 79% and the Inh ACh rel IC50 came out at 0.71 µM.
With Ac-SERFYECCAEP-NH2 (cysteine pairing not given here), in experiment [1], the ACh rel % Inh @ 100 µM came to 19% and the Inh ACh rel IC50 is greater than 10 µM. For the same molecule, in experiment [2], the IC50 was found to be 1.3 µM.
In experiment [1], Ac-SARFYECCKEP-NH2 (cysteine pairing not given here) came in with an ACh rel % Inh @ 100 µM of 13% and an Inh ACh rel IC50 greater than 10 µM. The IC50 in experiment [2] was 8.4 µM.
The like results for Ac-SERAYECCKEP-NH2 (cysteine pairing not given here) were, in that order, 14%, greater than 10 µM and greater than 100 µM.
Take Ac-SERFYECCKAP-NH2 (cysteine pairing not given here): in experiment [1], the ACh rel % Inh @ 100 µM was found to be 75% and the Inh ACh rel IC50 is 0.426 µM. In experiment [2], this molecule gave an IC50 greater than 100 µM.
The like results for Ac-SERFYECCKEP-NH2 (cysteine pairing not given here) were, in that order, 89%, 0.125 µM and 19 µM.
The like results for Ac-SERFYECAKEP-NH2 were, in that order, 85%, 0.165 µM and greater than 100 µM.
Ac-SERFYEACKEP-NH2: in experiment [1], the ACh rel % Inh @ 100 µM was determined as 19% and the Inh ACh rel IC50 was greater than 10 µM. Moreover, the IC50 in experiment [2] was greater than 100 µM.
